Data as given in the MegaScale stability set (Tsuboyama et al. 2023).

B1: r16_88_TrROS_Hall (parent)
chain: EVIELKIKFKTPEQREKLKEIAKKLNAEVVEEKDGEVIIRFKTPEQAERALKEAEKLGAEVEL

Variants of: B1
Experiment: folding stability dG (cDNA display proteolysis); higher = more stable
Details: PBS, room temperature

Row | Variant | folding stability dG
1 | EVIELKIKFKTPEQREKLKEIAKKLNAEVVECKDGEVIIRFKTPEQAERALKEAEKLGAEVEL [E32C] | 4.53 kcal/mol
2 | EVIELKIKFKTPEQREKLKEIAKKLNAEVVENKDGEVIIRFKTPEQAERALKEAEKLGAEVEL [E32N] | 4.43 kcal/mol
3 | EVIELKIKFKTPEQREKLKEIAKKLNAEVVELKDGEVIIRFKTPEQAERALKEAEKLGAEVEL [E32L] | 4.31 kcal/mol
4 | EVIELKIKFKTPEQREKLKEIAKKLNAEVVEMKDGEVIIRFKTPEQAERALKEAEKLGAEVEL [E32M] | 4.33 kcal/mol
5 | EVIELKIKFKTPEQREKLKEIAKKLNAEVVEHKDGEVIIRFKTPEQAERALKEAEKLGAEVEL [E32H] | 4.49 kcal/mol
6 | EVIELKIKFKTPEQREKLKEIAKKLNAEVVEFKDGEVIIRFKTPEQAERALKEAEKLGAEVEL [E32F] | 4.57 kcal/mol
7 | EVIELKIKFKTPEQREKLKEIAKKLNAEVVEIKDGEVIIRFKTPEQAERALKEAEKLGAEVEL [E32I] | 4.39 kcal/mol
8 | EVIELKIKFKTPEQREKLKEIAKKLNAEKVEEKDGEVIIRFKTPEQAERALKEAEKLGAEVEL [V29K] | 4.39 kcal/mol
9 | EVIELKIKFKTPEQREKLKEIAKKLNAERVEEKDGEVIIRFKTPEQAERALKEAEKLGAEVEL [V29R] | 4.57 kcal/mol
10 | EVIELKIKFKTPEQREKLKEIAKKLNAEGVEEKDGEVIIRFKTPEQAERALKEAEKLGAEVEL [V29G] | 4.47 kcal/mol
11 | EVIELKIKFKTPEQREKLKEIAKKLNAEPVEEKDGEVIIRFKTPEQAERALKEAEKLGAEVEL [V29P] | 4.1 kcal/mol
12 | EVIELKIKFKTPEQREKLKEIAKKLNAEEVEEKDGEVIIRFKTPEQAERALKEAEKLGAEVEL [V29E] | 4.47 kcal/mol
13 | EVIELKIKFKTPEQREKLKEIAKKLNAECVEEKDGEVIIRFKTPEQAERALKEAEKLGAEVEL [V29C] | 4.49 kcal/mol
14 | EVIELKIKFKTPEQREKLKEIAKKLNAELVEEKDGEVIIRFKTPEQAERALKEAEKLGAEVEL [V29L] | 4.2 kcal/mol
15 | EVIELKIKFKTPEQREKLKEIAKKLNAEIVEEKDGEVIIRFKTPEQAERALKEAEKLGAEVEL [V29I] | 4.3 kcal/mol
16 | EVIELKIKFKTPEQREKLKEIAKKLNAENVEEKDGEVIIRFKTPEQAERALKEAEKLGAEVEL [V29N] | 4.62 kcal/mol
17 | EVIELKIKFKTPEQREKLKEIAKKLNAEFVEEKDGEVIIRFKTPEQAERALKEAEKLGAEVEL [V29F] | 4.23 kcal/mol
18 | EVIELKIKFKTPEQREKLKEIAKKLNAETVEEKDGEVIIRFKTPEQAERALKEAEKLGAEVEL [V29T] | 4.21 kcal/mol
19 | EVIELKIKFKTPEQREKLKEIAKKLNAEHVEEKDGEVIIRFKTPEQAERALKEAEKLGAEVEL [V29H] | 4.53 kcal/mol
20 | EVIELKIKFKTPEQREKLKEIAKKLNAEWVEEKDGEVIIRFKTPEQAERALKEAEKLGAEVEL [V29W] | 4.3 kcal/mol
21 | EVIELKIKFKTPEQREKLKEIAKKLNAEDVEEKDGEVIIRFKTPEQAERALKEAEKLGAEVEL [V29D] | 4.14 kcal/mol
22 | EVIELKIKFKTPEQREKLKEIAKKLNAEMVEEKDGEVIIRFKTPEQAERALKEAEKLGAEVEL [V29M] | 4.4 kcal/mol

Row | Variant | folding stability dG
23 | EVIELKIKFKTPEQREKLKEIAKKLNAESVEEKDGEVIIRFKTPEQAERALKEAEKLGAEVEL [V29S] | 4.32 kcal/mol
24 | EVIELKIKFKTPEQREKLKEIAKKLNAEYVEEKDGEVIIRFKTPEQAERALKEAEKLGAEVEL [V29Y] | 4.55 kcal/mol
25 | EVIELKIKFKTPEQREKLKEIAKKLNAEAVEEKDGEVIIRFKTPEQAERALKEAEKLGAEVEL [V29A] | 4.3 kcal/mol
26 | EVIELKIKFKTPEQREKLKEIAKKLNAEQVEEKDGEVIIRFKTPEQAERALKEAEKLGAEVEL [V29Q] | 4.76 kcal/mol
27 | EVIELKIKFKTPEQREKLKEIAKKLNARVVEEKDGEVIIRFKTPEQAERALKEAEKLGAEVEL [E28R] | 4.37 kcal/mol
28 | EVIELKIKFKTPEQREKLKEIAKKLNALVVEEKDGEVIIRFKTPEQAERALKEAEKLGAEVEL [E28L] | 4.24 kcal/mol
29 | EVIELKIKFKTPEQREKLKEIAKKLNATVVEEKDGEVIIRFKTPEQAERALKEAEKLGAEVEL [E28T] | 4.4 kcal/mol
30 | EVIELKIKFKTPEQREKLKEIAKKLNAVVVEEKDGEVIIRFKTPEQAERALKEAEKLGAEVEL [E28V] | 4.41 kcal/mol
31 | EVIELKIKFKTPEQREKLKEIAKKLNAPVVEEKDGEVIIRFKTPEQAERALKEAEKLGAEVEL [E28P] | 4.34 kcal/mol
32 | EVIELKIKFKTPEQREKLKEIAKKLNAFVVEEKDGEVIIRFKTPEQAERALKEAEKLGAEVEL [E28F] | 4.17 kcal/mol
33 | EVIELKIKFKTPEQREKLKEIAKKLNASVVEEKDGEVIIRFKTPEQAERALKEAEKLGAEVEL [E28S] | 4.1 kcal/mol
34 | EVIELKIKFKTPEQREKLKEIAKKLNAKVVEEKDGEVIIRFKTPEQAERALKEAEKLGAEVEL [E28K] | 4.17 kcal/mol
35 | EVIELKIKFKTPEQREKLKEIAKKLNAYVVEEKDGEVIIRFKTPEQAERALKEAEKLGAEVEL [E28Y] | 4.36 kcal/mol
36 | EVIELKIKFKTPEQREKLKEIAKKLNANVVEEKDGEVIIRFKTPEQAERALKEAEKLGAEVEL [E28N] | 4.17 kcal/mol
37 | EVIELKIKFKTPEQREKLKEIAKKLNAWVVEEKDGEVIIRFKTPEQAERALKEAEKLGAEVEL [E28W] | 4.53 kcal/mol
38 | EVIELKIKFKTPEQREKLKEIAKKLNAIVVEEKDGEVIIRFKTPEQAERALKEAEKLGAEVEL [E28I] | 4.45 kcal/mol
39 | EVIELKIKFKTPEQREKLKEIAKKLNAQVVEEKDGEVIIRFKTPEQAERALKEAEKLGAEVEL [E28Q] | 4.51 kcal/mol
40 | EVIELKIKFKTPEQREKLKEIAKKLNADVVEEKDGEVIIRFKTPEQAERALKEAEKLGAEVEL [E28D] | 4.26 kcal/mol
41 | EVIELKIKFKTPEQREKLKEIAKKLNAMVVEEKDGEVIIRFKTPEQAERALKEAEKLGAEVEL [E28M] | 4.17 kcal/mol
42 | EVIELKIKFKTPEQREKLKEIAKKLNAHVVEEKDGEVIIRFKTPEQAERALKEAEKLGAEVEL [E28H] | 4.43 kcal/mol
43 | EVIELKIKFKTPEQREKLKEIAKKLNAGVVEEKDGEVIIRFKTPEQAERALKEAEKLGAEVEL [E28G] | 4.33 kcal/mol
